Biological target: native mVDAC1-GFP (mouse) (UniProt Q60932)
Experiment: cell-based or functional assay

Chain of native mVDAC1-GFP (mouse) (Q60932 14-296): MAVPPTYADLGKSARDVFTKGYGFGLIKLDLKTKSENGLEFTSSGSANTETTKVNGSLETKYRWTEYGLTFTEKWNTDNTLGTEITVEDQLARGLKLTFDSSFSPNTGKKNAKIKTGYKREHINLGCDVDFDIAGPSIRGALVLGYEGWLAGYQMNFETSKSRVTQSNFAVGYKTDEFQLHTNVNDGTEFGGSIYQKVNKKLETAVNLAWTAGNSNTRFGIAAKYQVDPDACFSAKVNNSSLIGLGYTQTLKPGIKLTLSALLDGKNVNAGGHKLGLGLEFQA

recombinant HK-I over-expressed in cells (pcDNA3.1-HisA-HK-I) (enzyme)
apoptotic cell death of cells over-expressing HK-I and mVDAC1-GFP: < 10%
